Among the data in patent US11781164B2, “Demethylation of reticuline and derivatives thereof with fungal cytochrome P450” (priority 2017, dated 2023) are Northebaine production values, retold here.

In this series the test system is thebaine. Description: Demethylation of thebaine by new cytochrome P450 fungal and plant homologs co-expressed with CPRs in S. cerevisiae. As to conditions: 0.5 mM thebaine, SC or DELFT media pH 7, 72 h, 30° C.; co-expressed with Cel_CPR_co, Tp_CPR_5866, Tp_CPR_DN10898 or POR1.

B1: CYPDN21: cytochrome P450 homolog XM_018432503 from Phycomyces blakesleeanus, codon-optimized (protein, listed as Phycomyces biakesleeanus)
chain: MLAKKVNGYAGFTLDAIQTIYFNRAIKLVRPPKALSHIPHVPYFSYMSSLIKKENTISRNKRFANKLFEDPESNGLYLRPNVKGWEVVVTRPEDAKKLLFKSDIFPKADFTSGIDGTILSKFSRGPNLLFTTGAHWKAQRMVANPAFHRSAPVKLFGELTQKLFRVMDNRANKTVDITRLMEAWALDAIGLAGFDFDFNAIENPNSSWVRIYERVDKALVHPFYSFFPKADKYLLWVLPNRKQAHTDLDIFLKMIDNVIIAKKKALHENKSNKHLENSEKDLLTLMLESEAKGSTLSAKELRSNMCVFFAAGHETTANSLAYAIYFMAVNPDVQCKAREEAFKVLGDAQEDIMPTIEQTKSMDYINAVIKETLRSHSPALGTFARKATKDTELGGVLIPKDTMISMDIFNLHHNPNVWNNPDEFDPSRFLPGGEAEKQINNGFSWIPFGTGARQCIGMNFSLIEQRVMLSMMLRKFAWSLPEDSIHKDYLHTTNLVISSAKDLNINFEKLY
Regarding B1, the Northebaine production result was “+”.

B2: CYPDN28: cytochrome P450 homolog A0A1X2HYB6 from Absidia repens, codon-optimized (protein, listed as Absidia repens)
chain: MLTQYIHQFFNNFDQKKTMDQLQSVASSKDGVIGIATALILISGVAAYKSSTVERGCPQVPCGTFSFGSTSEYRENPVAFVKKWEEKLGPVFGAQLFGQYATIVSGPQVREIFSNENFSFMAGIQRDFDTYLLANGGSIHDLPPHVVSGGIKKNLSPKLPFYTSRVIEHLKIGLYEQCGVVPDEGKEFDHVYPFVQHMVAKASASVFVGPELAKDLNLVDSFKNMVLEVGSDMGPKPYLEHFPHLMRLRMWYIGKTSTNVKRHRDQLFAALVPQIDSRLKAMKEKDSNWDRPNDFLQDILETDDCPPHMDIYSYCVDWMTQIIFAALHTTSENGTIVLYRLLDNPKVLEELYEEQNAVLEEAGYDDTVGPEVFTREILNKFVKMDSVIRESCRLRNDYIGLPHTNVGKKTIVLSGGAMIRPGENAFVNFYSNHRDEKLQKSGMNANNFEPYRFVDQGKNSTKIGDDFMFFGMFKHACPGRWFAIQEIKTILAMLIRSYKMSAIDSVVFPTSDYTRIPTGRFKIVPRK
In the case of B2, the Northebaine production result is given as “+”.

B3: CYPDN20: cytochrome P450 homolog A0A163A6R1 from Phycomyces blakesleeanus, codon-optimized (protein, listed as Phycomyces biakesleeanus)
chain: MCLFFCKKVYDFTAVPYELKKFPNIPFFYFVKSILSVESVENRTKRLVLPLLHKNNGFYVSRFPFYWTVFTTDPDAVQYLLMKGEIFPKDTRFTSAVSKDSLIIRLFGSSNVAFISGEPLKHQCRTMNPAFRRTAPVNIFGRLIPDMFRLIDKSDGDILIVNLLQRMTFDALGKALFGFDFKTMKEDNSAWMTAYSDAMSGVTAPVLNIIPSLEYILRYFYPNYTKAKNGVDKLNRLILELVNKKKQELEESMPQSCSNNNNGDTDGDAYDQEKDLLTLILEAEMKDNKSSGSDDLRANMATFIMAGHETTASSVSFCIYHMVINKDVRDKARREALDILGYDDFISPPTFDECKRVNYINMVVKEALRLCTPGGLLFERIATEDVFLSGVFIPKGTRISVDIEALHKNPAIWKNPSVFDPERFSKGGEHEQHRGITWAPFSDGNRKCLGINFSMTEQQVILLMLLKHYEWDLSENSIHNNGMVYDNVFSFAPKTLSIKFHKRH
Take B3: the Northebaine production result was “+”.

B4: CYPDN27: cytochrome P450 homolog A0A077WLY1 from Lichtheimia ramosa, codon-optimized (protein, listed as Licthheimia ramosa)
chain: MPSLIPKNASDAIEQYISRLKTMDRRHMGIIAGSVAVVSLYTFYRHLTRSRDDIPLVPYTWPLIGSTPSFNRDPVAFVEKWSQEYGPVFRAHLQGRIQTIIAAEYVRDIFMNSDFDFLFAVNKRFDPHLLADIDDNTFTTEMLRKVVMKLTTQLKSYTPRAVEFLDVGRNEFLSHFPAGPVHLPHLYPLIQHMVGKASAAIFAGTKLASNPEVVESFKNITLEVGAEIAVDSVFLERYWGLNRFRMWLMGKFSKSMKRHHRVLKDALRPEIKDRIEASSDPSRERPDDMLQIIIESYYTERRGESVDDLTEDLVKWLISLIFAAIHTTSENSTVVLYRILSKPDVVEELLEEQREVLVRHGISPDEKDPSKMFTGAVIKDLVKLDSACREGMRMRNDYLTLGHTYLGKKPITLSCGAVIKPGEDVIINTWYNHRNNKIQKIQGDDYSNYNPFRFVGSDRQAARIGDDFLIFGEGKHACPGRWFALQEMKTIISFLIRDYKMAPEGPITFPKNPKMTLPMGQVILESRH
As to B4, the Northebaine production result is on record as “+”.

B5: CYPDN22: cytochrome P450 homolog XM_023609077 from Rhizopus microsporus, codon-optimized (protein, listed as Rhizopus microsporus)
chain: MAISFLYREGPAERLKRLKLPAMRKGNGFYLSRVPFCWTVYVANPIAAKQLLLKAENFPKSHFLMVGKDSPFVQFLGPDNVVNSNGENWKKQRKVMNPAFHRSMPVKTIAGVVLTLFAVIDKYKGKVPVTSTMQEFTLDVLGLAIFNFDFGSLKGDAKKWRAEYKLVMLFDPVTNVFTGFDFLLRYIYPKRIKGANAVNNLNKLFDQLVKQKRLEVQSGVHANKPQNEKDLLTLMLEAEQRGEAMTTDMEMRHNVAVFFLAGHESTAHVLSFTLYFLAKNKYVQQKLREEVSRVMGRKSVDVAPTLEELRQMEYLYAVIKESLRLCSIFDVLILRDAVEDMYLDDTFIPKGTRITIDVSAIQRDPKVWNNPDDFIPERFMEGGEAEGHEGMTWLPFGGGARQCIGMNFSLTEQKVALAMLVQRYDIDVPKDSIHYEDIAYERPFYLAPQSLELTFTKLH
Consider B5, for which the Northebaine production entry is on record as “+”.

B6: CYPDN24: cytochrome P450 homolog A0A077WFB8 from Lichtheimia ramosa, codon-optimized (protein, listed as Lichtheimia ramosa)
chain: MDNQTWSSVPGASFWKGKLVSGHYVREVFLNNDFDFLKGTGKRFDTLLLTDTTTQDVDIEVFRTVVMKHLTKEMKAYTPRVVQHLTAGGDEKLGDAKEPQELVHLFPLLQHMVAKASASIFVGTELASDDDVVETCKNIAIDIGSELGPGSYIMDAFPSLARLRMWYIGKFGKAINKHRQHLLRALGPVIDKRLAAAEKGGDWDRPQDILQDIIETINLTLDNPKRHILPVKWLLALFFASIHTTSENSTIVLYRIMQNPEIIDVLLEEQNQVLEKHYGSNIDYSDTTKLFTGEVIKELVKLDSLCREAMRARNSYLELPHTYVGKSRITLSCGAIIEPGHDVLINMWGNHRDAKIQRDTIGDHHDFKPFRFVGLDRQSTKIGDDFLMFGQGRHACPGRWFAIQEIKTIVSVLIRYYKLTPNGPITFPTHPRMPMPMGQVIIQRRQ
As to B6, the Northebaine production result is listed as “+”.

B7: CYPDN29: cytochrome P450 homolog A0A068SBU5 from Lichtheimia corymbifera, codon-optimized (protein, listed as Lichtheimia corymbifera)
chain: MYTLVSFLKDQNIIAVLKNAIHAQQQGTTASSITILSLAVAITTFAVHRIRLYSVKEHGVPLVPYVLPFIGSSPEYRKDPKAFLEKWTAKFGPVFRAHIFGRVYTIISGHYVREVFLNEDFSFEVGMGKTFDGWLITDTKKSELFSTPLVRSMVMKHLAVDVKNYTPRAVEHLTIAAREMLGDIGESKELPHLYPLIQHMVSTAIASILVGLKICKDKDLLETFKNVAVDIGSELNPDSYLYEAFPTISRLRQWYLGKYGKAINKHQEHMLRVLGPEIDERLAAMERGDGGWERPEDILQGILETAKLTSDHPQRYMVPIKWFLILVFASIHTTSQNTTVAMYRLLQHPEVIDELLEEQNQVFEKHHGSNYDDHDITKLLTGEVIKDLVKLDSVCREAMRISSFYAELPHTYIGKSPLTMSNGTIINPGDDVLINGYTNHHDPDIQIDGGGDYAEFKPFRFVEKGRQSTRIGDDYLIFGQGKHACPGRWFAMQEMKTTISFLIRQYIITAKGDIMFLKGHRQKIPMGQVIFQKR
Regarding B7, the Northebaine production result is recorded as “+”.
